One experiment has as its target HLA-A*02 (Homo sapiens, UniProt P04439, D140Y/D185E/D98H/E176V/E277Q/G131W/G231S/I119V/I121R/I166T/I218V/L300P/N151K/N90K/P208A/P217A/Q86G/Q94H/R138H/R169H). As to the kind of experiment: MHC binding assay (UV-ligand exchange, beta2m ELISA), HLA-A*02. Conditions: peptide exchange yield, binding to HLA-A*02, UV-ligand exchange, β2m ELISA. The text has this: Candidate peptides for T cell based therapies according to the present invention were further tested for their MHC binding capacity (affinity). The individual peptide-MHC complexes were produced by UV-ligand exchange, where a UV-sensitive peptide is cleaved upon UV-irradiation, and exchanged with the peptide of interest as analyzed. Only peptide candidates that can effectively bind and stabilize the peptide-receptive MHC molecules prevent dissociation of the MHC complexes. To determine the yield of the exchange reaction, an ELISA was performed based on the detection of the light chain (β2m) of stabilized MHC complexes. The assay was performed as generally described in Rodenko et al. (Rodenko et al., 2006).
96 well MAXISorp plates (NUNC) were coated over night with 2 ug/ml streptavidin in PBS at room temperature, washed 4× and blocked for 1 h at 37° C. in 2% BSA containing blocking buffer. Refolded HLA-A*02:01/MLA-001 monomers served as standards, covering the range of 15-500 ng/ml. Peptide-MHC monomers of the UV-exchange reaction were diluted 100 fold in blocking buffer. Samples were incubated for 1h at 37° C., washed four times, incubated with 2 ug/ml HRP conjugated anti-62m for 1 h at 37° C., washed again and detected with TMB solution that is stopped with […]. Absorption was measured at 450 nm. Candidate peptides that show a high exchange yield (preferably higher than 50%, most preferred higher than 75%) are generally preferred for a generation and production of antibodies or fragments thereof, and/or T cell receptors or fragments thereof, as they show sufficient avidity to the MHC molecules and prevent dissociation of the MHC complexes.

Another experiment deals with CD8+ T cells. As to the kind of experiment: In vitro immunogenicity: T-cell priming with aAPCs loaded with peptide/MHC and anti-CD28, multimer staining. Type of experiment: cell-based, human. The note with it: in vitro immunogenicity of HLA class I peptides; peptide-specific multimer staining after aAPC priming of CD8+ T cells. The source says:
In order to obtain information regarding the immunogenicity of the TUMAPs of the present invention, the inventors performed investigations using an in vitro T-cell priming assay based on repeated stimulations of CD8+ T cells with artificial antigen presenting cells (aAPCs) loaded with peptide/MHC complexes and anti-CD28 antibody.
In order to perform in vitro stimulations by artificial antigen presenting cells loaded with peptide-MHC complex (pMHC) and anti-CD28 antibody, the inventors first isolated CD8+ T cells from fresh HLA-A*02 leukapheresis products via positive selection using CD8 microbeads (Miltenyi Biotec, Bergisch-Gladbach, Germany) of healthy donors obtained from the University clinics Mannheim, Germany, after informed consent.
PBMCs and isolated CD8+ lymphocytes were incubated in T-cell medium (TCM) until use consisting of RPMI-Glutamax (Invitrogen, Karlsruhe, Germany) supplemented with 10% heat inactivated human AB serum (PAN-Biotech, Aidenbach, Germany), 100 U/ml Penicillin/100 μg/ml Streptomycin (Cambrex, Cologne, Germany), 1 mM sodium pyruvate (CC Pro, Oberdorla, Germany), 20 µg/ml Gentamycin (Cambrex). 2.5 ng/ml IL7 (PromoCell, Heidelberg, Germany) and 10 U/ml IL-2 (Novartis Pharma, Nurnberg, Germany) were also added to the TCM at this step.
Generation of pMHC/anti-CD28 coated beads, T-cell stimulations and readout was performed in a highly defined in vitro system using four different pMHC molecules per stimulation condition and 8 different pMHC molecules per readout condition.
The purified co-stimulatory mouse IgG2a anti human CD28 Ab 9.3 (Jung et al., 1987) was chemically biotinylated using Sulfo-N-hydroxysuccinimidobiotin as recommended by the manufacturer (Perbio, Bonn, Germany). Beads used were 5.6 μm diameter streptavidin coated polystyrene particles (Bangs Laboratories, Illinois, USA).
pMHC used for positive and negative control stimulations were A*0201/MLA-001 (peptide […] (SEQ ID NO. 303) from modified Melan-A/MART-1) and A*0201/DDX5-001 ([…] from DDX5, SEQ ID NO. 304), respectively.
800.000 beads/200 μl were coated in 96-well plates in the presence of 4×12.5 ng different biotin-pMHC, washed and 600 ng biotin anti-CD28 were added subsequently in a volume of 200 μl. Stimulations were initiated in 96-well plates by co-incubating 1×10^6 CD8+ T cells with 2×10^5 washed coated beads in 200 μI TCM supplemented with 5 ng/ml IL-12 (PromoCell) for 3 days at 37° C. Half of the medium was then exchanged by fresh TCM supplemented with 80 U/ml IL-2 and incubating was continued for 4 days at 37° C. This stimulation cycle was performed for a total of three times. For the pMHC multimer readout using 8 different pMHC molecules per condition, a two-dimensional combinatorial coding approach was used as previously described (Andersen et al., 2012) with minor modifications encompassing coupling to 5 different fluorochromes. Finally, multimeric analyses were performed by staining the cells with Live/dead near IR dye (Invitrogen, Karlsruhe, Germany), CD8-FITC antibody clone SK1 (BD, Heidelberg, Germany) and fluorescent pMHC multimers. For analysis, a BD LSRII SORP cytometer equipped with appropriate lasers and filters was used. Peptide specific cells were calculated as percentage of total CD8+ cells. Evaluation of multimeric analysis was done using the FlowJo software (Tree Star, Oreg., USA). In vitro priming of specific multimer+CD8+ lymphocytes was detected by comparing to negative control stimulations.

As to “4 (KLMPGTYTL; listed as Homo sapiens) [compound 4]”, in the experiment with HLA-A*02, the Peptide exchange result is on record as “++++ (>=75% = ++++)”. Moreover, in the experiment on CD8+ T cells, the “Wells positive [%]” value is “+ (<20% = +)”. As to “249 (GLCERLVSL; listed as Homo sapiens) [compound 249]”, the Peptide exchange entry with HLA-A*02 is “++++ (>=75% = ++++)”. Further, the “Wells positive [%]” value in the experiment with CD8+ T cells is “+ (<20% = +)”.

On to “12 (GLLPLLHRA; listed as Homo sapiens) [compound 12]”, for which the Peptide exchange entry in the experiment with HLA-A*02 is reported as “++++ (>=75% = ++++)”. In addition, in the experiment on CD8+ T cells, the “Wells positive [%]” value is “++++ (>=70% = ++++)”.

Consider “125 (SLADYEHFV; listed as Homo sapiens) [compound 125]”, for which the Peptide exchange result with HLA-A*02 is given as “++++ (>=75% = ++++)”.

(Values after patent publication US10004792B2, “Peptides and combination of peptides for use in immunotherapy against various cancers” (immatics biotechnologies GmbH, priority 2015, dated 2018).)
